Source: patent US20180111996A1

Key:
[1] = molecular target: human PD-1 (hPD-1) receptor expressed on cells (human) (UniProt Q15116); test: FMAT, blockade of labeled hPD-L2/Fc binding to CHO-hPD-1 cells
[2] = molecular target: human PD-1 (hPD-1) receptor expressed on cells (human) (UniProt Q15116); test: FACS, blockade of hPD-L1/Fc binding to CHO cells expressing human PD-1
[3] = molecular target: human PD-1 (hPD-1) receptor expressed on cells (human) (UniProt Q15116); test: FMAT, blockade of labeled hPD-L1/Fc binding to CHO-hPD-1 cells
[4] = molecular target: human PD-1 (hPD-1) receptor expressed on cells (human) (UniProt Q15116); test: CELISA on CHO-hPD-1 cells
[5] = molecular target: hPD-1/Fc (R & D Systems) (human) (UniProt Q15116); test: bio-light interferometry (ForteBio Octet), PD-1/Fc on biosensor
[6] = molecular target: hPD-1/Fc (R & D Systems) (human) (UniProt Q15116); test: protein ELISA, hPD-1/Fc immobilized
[7] = molecular target: human PD-1 (hPD-1) receptor expressed on cells (human) (UniProt Q15116); test: FACS, blockade of hPD-L1/Fc binding to CHO cells expressing human PD-1; remark: listed apart in the source

Sequence of hPD-1/Fc (R & D Systems) (human) (Q15116 25-167 limits assumed): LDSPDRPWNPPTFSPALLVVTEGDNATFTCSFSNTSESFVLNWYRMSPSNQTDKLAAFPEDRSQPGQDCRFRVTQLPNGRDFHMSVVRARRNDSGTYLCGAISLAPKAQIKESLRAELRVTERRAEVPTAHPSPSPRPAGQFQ
Sequence of human PD-1 (hPD-1) receptor expressed on cells (human) (Q15116 25-288): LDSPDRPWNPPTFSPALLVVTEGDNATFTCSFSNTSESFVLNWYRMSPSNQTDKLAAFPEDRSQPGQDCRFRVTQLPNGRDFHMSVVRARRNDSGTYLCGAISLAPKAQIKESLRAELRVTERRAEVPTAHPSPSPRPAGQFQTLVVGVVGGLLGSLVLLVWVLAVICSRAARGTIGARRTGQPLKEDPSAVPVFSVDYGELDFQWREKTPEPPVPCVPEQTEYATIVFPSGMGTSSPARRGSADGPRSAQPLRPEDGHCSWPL

Anti-PD-1 antibody clone J116 (eBioscience #14-9989)
IC50 [1]: 0.044 nM | IC50 [2]: > 100 nM | IC50 [3]: > 0.1 nM | EC50 [4]: 0.349 nM | Kd [5]: 1.82 nM | koff [5]: 0.00015 s⁻¹ | kon [5]: 82400 M⁻¹ s⁻¹ | EC50 [6]: 0.41 nM | IC50 [7]: 0.106 nM
